According to patent US20240309055A1:

Key:
[1] = molecular target: AAV2 capsid (AAV2-Luciferase vector) (adeno-associated virus 2) (UniProt P03135); assay: cell-based or functional assay
[2] = molecular target: IgG affixed to the BLI probe; assay: BLI kinetic analysis, 1:1 fit, protein M 15.6-250 nM, IgG on Anti-Mouse IgG Fc Capture biosensor (mouse IgG per paragraph 316), 37 C; same row: KD error 0.2 nM, X2 2.5, R2 1.00
[3] = molecular target: IgG affixed to the BLI probe; assay: BLI kinetic analysis, 1:1 fit, protein M 15.6-250 nM, IgG on Anti-Mouse IgG Fc Capture biosensor (mouse IgG per paragraph 316), 37 C
[4] = molecular target: AAV2 capsid (AAV2-Luciferase vector) (adeno-associated virus 2) (UniProt P03135); assay: cell-based or functional assay; remark: listed apart in the source
[5] = molecular target: human intravenous immunoglobulin gamma (IVIG), 10% Human IVIG (Gamunex) (human); assay: cell-based or functional assay
[6] = molecular target: IgG affixed to the BLI probe; assay: BLI kinetic analysis, 1:1 fit, protein M 15.6-250 nM, IgG on Anti-Mouse IgG Fc Capture biosensor (mouse IgG per paragraph 316), 37 C; same row: KD error 0.2 nM, X2 1.9, R2 1.00
[7] = molecular target: IgG affixed to the BLI probe; assay: BLI at 37° C, IgG Fc capture biosensor (AHC or AMC, not told which), 1:1 fit, max conc. 50 nM, 6 points
[8] = molecular target: IgG affixed to the BLI probe; assay: BLI kinetic analysis, 1:1 fit, protein M 15.6-250 nM, IgG on Anti-Mouse IgG Fc Capture biosensor (mouse IgG per paragraph 316), 37 C; same row: KD error 0.5 nM, X2 2.4, R2 0.99
[9] = molecular target: IgG affixed to the BLI probe; assay: BLI at 37° C, IgG Fc capture biosensor (AHC or AMC, not told which), 1:1 fit, max conc. 250 nM, 5 dilutions

Sequence of UniProt P03135 (P03135 whole entry, the tested form may be a part): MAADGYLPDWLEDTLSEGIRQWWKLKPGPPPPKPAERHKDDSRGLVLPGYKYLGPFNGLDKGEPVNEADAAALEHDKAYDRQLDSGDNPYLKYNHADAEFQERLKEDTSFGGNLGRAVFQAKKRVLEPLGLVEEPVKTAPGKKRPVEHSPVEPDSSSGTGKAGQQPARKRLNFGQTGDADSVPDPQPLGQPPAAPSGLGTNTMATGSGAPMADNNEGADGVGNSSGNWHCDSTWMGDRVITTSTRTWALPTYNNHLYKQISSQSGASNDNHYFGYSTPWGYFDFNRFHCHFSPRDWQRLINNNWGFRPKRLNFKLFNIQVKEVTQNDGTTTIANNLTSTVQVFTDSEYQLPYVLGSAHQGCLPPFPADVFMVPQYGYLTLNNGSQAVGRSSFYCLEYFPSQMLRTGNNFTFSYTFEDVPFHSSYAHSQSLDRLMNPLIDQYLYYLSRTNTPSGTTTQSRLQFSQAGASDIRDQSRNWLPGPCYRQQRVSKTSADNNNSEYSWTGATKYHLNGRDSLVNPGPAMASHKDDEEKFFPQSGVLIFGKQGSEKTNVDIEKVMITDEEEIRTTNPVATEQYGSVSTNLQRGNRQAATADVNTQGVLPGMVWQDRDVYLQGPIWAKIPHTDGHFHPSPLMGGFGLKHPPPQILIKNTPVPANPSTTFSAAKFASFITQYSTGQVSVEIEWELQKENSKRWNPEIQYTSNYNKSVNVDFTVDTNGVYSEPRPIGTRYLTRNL

Question: “protein M without cleavage of the His tag (from UniProt P47523 37-556)” was tested. Which molar ratio of protein M to AAV2 particle at which enhancement begins to saturate (protein M molecules per AAV2 particle) [1] did it give?
Answer: 700000

Question: What about the molar ratio of protein M to AAV2 particle below which enhancement of the luciferase signal is abolished (protein M molecules per AAV2 particle) [1] of the same molecule?
Answer: < 40000

Question: With MG WT as the molecule, how does the Kd [2] read?
Answer: 11.9 nM

Question: And the koff [3]?
Answer: 0.00033 s⁻¹

Question: What about the kon [3] of the same molecule?
Answer: 28000 M⁻¹ s⁻¹

B1: protein M (SEQ ID NO:2), His-tag removed by thrombin cleavage (protein)
chain: HHHHHHSSGLVPRGSHMTNLVNQSGYALVASGRSGNLGFKLFSTQSPSAEVKLKSLSLNDGSYQSEIDLSGGANFREKFRNFANELSEAITNSPKGLDRPVPKTEISGLIKTGDNFITPSFKAGYYDHVASDGSLLSYYQSTEYFNNRVLMPILQTTNGTLMANNRGYDDVFRQVPSFSGWSNTKATTVSTSNNLTYDKWTYFAAKGSPLYDSYPNHFFEDVKTLAIDAKDISALKTTIDSEKPTYLIIRGLSGNGSQLNELQLPESVKKVSLYGDYTGVNVAKQIFANVVELEFYSTSKANSFGFNPLVLGSKTNVIYDLFASKPFTHIDLTQVTLQNSDNSAIDANKLKQAVGDIYNYRRFERQFQGYFAGGYIDKYLVKNVNTNKDSDDDLVYRSLKELNLHLEEAYREGDNTYYRVNENYYPGASIYENERASRDSEFQNEILKRAEQNGVTFDENIKRITASGKYSVQFQKLENDTDSSLERMTKAVEGLVTVIGEEKFETVDITGVSSDTNEVKSLAKELKTNALGVKLKL
Question: With B1 as the molecule, how does the AAV2-Luciferase signal, % of PBS control, 33 µg protein M incubated alone with AAV2 (% of PBS control) [4] read?
Answer: 216

Question: And the AAV2-Luciferase signal, % of PBS control, 75 µg protein M incubated alone with AAV2 (% of PBS control) [4]?
Answer: 208

Question: And the AAV2-Luciferase signal, % of no-IVIG control, at 8:1 molar ratio (33 µg protein M, 12.5 µg IVIG) (% of no-IVIG control) [5]?
Answer: 194

Question: And the AAV2-Luciferase signal, % of no-IVIG control, at 20:1 molar ratio (75 µg protein M, 12.5 µg IVIG) (% of no-IVIG control) [5]?
Answer: 256

Question: And the AAV2-Luciferase signal, % of no-IVIG control, at protein M:IgG molar ratio 0.5:1 (% of no-IVIG control) [5]?
Answer: 40

Question: What about the AAV2-Luciferase signal, % of no-IVIG control, at protein M:IgG molar ratio 1:1 (% of no-IVIG control) [5] of the same molecule?
Answer: 52

Question: And the AAV2-Luciferase signal, % of no-IVIG control, at protein M:IgG molar ratios greater than 2:1 (12.5 µg IVIG) (% of no-IVIG control) [5]?
Answer: 108 to 193

Question: What about the molar ratio of protein M to IgG sufficient to prevent AAV2 neutralization (protein M molecules per IgG molecule) [5] of the same molecule?
Answer: 2

B2: MG 40 (protein, part only)
chain: SLSLNDGSYQSEIDLSGGANFREKFRNFANELSEAITNSPKGLDRPVPKTEISGLIKTGDNFITPSFKAGYYDHVASDGSLLSYYQSTEYFNNRVLMPILQTTNGTLMANNRGYDDVFRQVPSFSGWSNTKATTVSTSNNLTYDKWTYFAAKGSPLYDSYPNHFFEDVKTLAIDAKDISALKTTIDSEKPTYLIIRGLSGNGSQLNELQLPESVKKVSLYGDYTGVNVAKQIFANVVELEFYSTSKANSFGFNPLVLGSKTNVINDLFASKPFTHIDLTQVPLQNSDNSAIDANKLKQAVGDIYNYRRFERQFQGYFAGGYIDKYLVKNVNTNKDSDDDLVYRSLKELNLHLEEAYREGDNTYYRVNENYYPGASIYENERASRDSEFQNEILKRAEQNGVTFDEN
modifications: N-terminal His-tag and thrombin site
Question: For B2, which Kd [6] is on record?
Answer: 10.1 nM

Question: What about the koff [3] of the same molecule?
Answer: 0.00031 s⁻¹

Question: And the kon [3]?
Answer: 31000 M⁻¹ s⁻¹

B3: MG WT* (truncated M. genitalium protein M, amino acids 74-479, with Y338) (protein)
chain: SLSLNDGSYQSEIDLSGGANFREKFRNFANELSEAITNSPKGLDRPVPKTEISGLIKTGDNFITPSFKAGYYDHVASDGSLLSYYQSTEYFNNRVLMPILQTTNGTLMANNRGYDDVFRQVPSFSGWSNTKATTVSTSNNLTYDKWTYFAAKGSPLYDSYPNHFFEDVKTLAIDAKDISALKTTIDSEKPTYLIIRGLSGNGSQLNELQLPESVKKVSLYGDYTGVNVAKQIFANVVELEFYSTSKANSFGFNPLVLGSKTNVIYDLFASKPFTHIDLTQVTLQNSDNSAIDANKLKQAVGDIYNYRRFERQFQGYFAGGYIDKYLVKNVNTNKDSDDDLVYRSLKELNLHLEEAYREGDNTYYRVNENYYPGASIYENERASRDSEFQNEILKRAEQNGVTFDEN
Question: B3 was tested. Which Kd [7] did it give?
Answer: 0.8 nM

Question: What about the koff [7] of the same molecule?
Answer: 6.73e-05 s⁻¹

Question: What about the kon [7] of the same molecule?
Answer: 83800 M⁻¹ s⁻¹

B4: MG 31 (protein, part only)
chain: SLSLNDGSYQSEIDLSGGANFREKFRNFANELSEAITNSPKGLDRPVPKTEISGLIKTGDNFITPSFKAGYYDHVASDGSLLSYYQSTEYFNNRVLMPILQTTNGTLMANNRGYDDVFRQVPSFSGWSNTKATTVSTSNNLTYDKWTYFAAKGSPLYDSYPNHFFEDVKTLAIDAKDISALKTTIDSEKPTYLIIRGLSGNGSQLNELQLPESVKKVSLYGDYTGVNVAKQIFANVVELEFYSTSKANSFGFNPLVLGSKTNVINDLFASKPFTHIDLTQVTLQNSDNSAIDANKLKQAIGDIYNYRRFERQFQGYFAGGYIDKYLIKIVNTNPDVDDDIVYRSLKELNLHLEEAYREGDNIYYRVNENYYPGASIYENERASRDSEFQNEILKRAEQNGVTFDEN
modifications: N-terminal His-tag and thrombin site
Question: How did the koff [3] turn out when B4 was run?
Answer: 0.00047 s⁻¹

Question: What about the kon [3] of the same molecule?
Answer: 30000 M⁻¹ s⁻¹

Question: What about the Kd [8] of the same molecule?
Answer: 15.5 nM

B5: MG29 (modified M. genitalium protein M MG29, N338) (protein, not shown: small tags and cut ends)
chain: SLSLNDGSYQSEIDLSGGANFREKFRNFANELSEAITNSPKGLDRPVPKTEISGLIKTGDNFITPSFKAGYYDHVAEDGSLLSYYQSTEYFNNRVLMPILQTTNGTLMANNRGYDDVFRQVPRFPGWSNTKATTVSTSNNLTYDKWTYFAAKGSPLYDQYPNHTFEDVKTLAIDAKDISALKTTIDSEKPTYLIIRGLSGNGSQLNELQLPESVKKVSLYGDYTGVNVAKQIFANVVELEFYSTSKANSFGFNPLVLGSKTNVINDLFVSKPFTHIDLTQVTLQNSDNSAIDANKLKQAVGDIYNYRRFERQFQGYFAGGYIDKYLVKNVNTNKDSDDDLVYRSLKELNLHLEEAYREGDNTYYRVNENYYPGASIYENERASRDSEFQNEILKRAEQNGVTFDEN
Question: How did the Kd [9] turn out when B5 was run?
Answer: 7.9 nM

Question: And the koff [9]?
Answer: 0.00034 s⁻¹

Question: And the kon [9]?
Answer: 43000 M⁻¹ s⁻¹

B6: MG66* (modified M. genitalium protein M MG66 with Y338) (protein)
chain: SLSLNDGSYQSEIDLSGGANFREKFRNFANELSEAITNSPKGLDRPVPKTEISGLIKTGDNFITPSFKAGYYDHVAEDGSLLSYYQSTEYFNNRVLMPILQTTNGTLMANNRGYDDVFRQVPRFPGWSNTKPTTVSTSNNLTYDKWTYFAAKGSPLYDQYPNHTFEDVKTLAIDAKDISALKTTIDSEKPTYLIIRGLSGDGSQLNELQLPESVKKVSLYGDYTGVNVAKQIFANVVELEFYSTSKANSFGFNPLVLGSKTNVIYDLFVSKPFTHIDLTQVPLQNSDNSAIDANKLKQAVGDIYNYRRFERQFQGYFAGGYIDKYLVKNVNTNKDSDDDLVYRSLKELNLHLEEAYREGDNTYYRVNENYYPGASIYENERASRDSEFQNEILKRAEQNGVTFDEN
Question: With B6 as the molecule, how does the Kd [7] read?
Answer: 0.69 nM

Question: And the koff [7]?
Answer: 5.55e-05 s⁻¹

Question: And the kon [7]?
Answer: 80100 M⁻¹ s⁻¹
